Assay results as given in the supplement of paper PMC10567573.

B1: SLC19A2 (parent)
chain: FHHIPSTCQRVNGIKVQNGGIVTD
B2: OAS1 (parent)
chain: LQLGEGVEFDVLPAFDALGQLTGG

Variants of: B1
Assay: protein stability index of a GFP-peptide fusion (GPS, HEK-293T) (PSI 1-6); higher = more stable
Settings: c terminus: a fixed tail appended
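Also: lentivirally expressed fusions sorted by FACS into six bins by GFP to DsRed ratio, PSI derived from sequencing read proportions per bin multiplied by bin number.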

Variant	protein stability index
FHHIPSTCQRVNGIKVQNGGIVTC	1.5
FHHIPSTCQRVNGIKVQNGGIVTE	2.06
FHHIPSTCQRVNGIKVQNGGIVTG	1.16
FHHIPSTCQRVNGIKVQNGGIVTH	2.11
FHHIPSTCQRVNGIKVQNGGIVTI	2.06
FHHIPSTCQRVNGIKVQNGGIVTK	2.64
FHHIPSTCQRVNGIKVQNGGIVTM	2.38
FHHIPSTCQRVNGIKVQNGGIVTN	2.47
FHHIPSTCQRVNGIKVQNGGIVTP	1.72
FHHIPSTCQRVNGIKVQNGGIVTQ	1.94
FHHIPSTCQRVNGIKVQNGGIVTR	1.89
FHHIPSTCQRVNGIKVQNGGIVTS	2.12
FHHIPSTCQRVNGIKVQNGGIVTT	1.7
FHHIPSTCQRVNGIKVQNGGIVTY	3.21

Variants of: B2
Assay: as above
Settings: c terminus: a fixed tail appended

Variant	protein stability index
AQLGEGVEFDVLPAFDALGQLTGG	3.26
CQLGEGVEFDVLPAFDALGQLTGG	2.95
DQLGEGVEFDVLPAFDALGQLTGG	4.96
EQLGEGVEFDVLPAFDALGQLTGG	4.58
FQLGEGVEFDVLPAFDALGQLTGG	2.06
GQLGEGVEFDVLPAFDALGQLTGG	4.46
HQLGEGVEFDVLPAFDALGQLTGG	4.33
IQLGEGVEFDVLPAFDALGQLTGG	1.04
KQLGEGVEFDVLPAFDALGQLTGG	3.67
MQLGEGVEFDVLPAFDALGQLTGG	2.57
NQLGEGVEFDVLPAFDALGQLTGG	4.18
RQLGEGVEFDVLPAFDALGQLTGG	4.01
SQLGEGVEFDVLPAFDALGQLTGG	3.65
TQLGEGVEFDVLPAFDALGQLTGG	3.33
VQLGEGVEFDVLPAFDALGQLTGG	2.71
YQLGEGVEFDVLPAFDALGQLTGG	2.31
LALGEGVEFDVLPAFDALGQLTGG	3.5
LCLGEGVEFDVLPAFDALGQLTGG	1.04
LDLGEGVEFDVLPAFDALGQLTGG	2.84
LELGEGVEFDVLPAFDALGQLTGG	3.58
LGLGEGVEFDVLPAFDALGQLTGG	1.74
LILGEGVEFDVLPAFDALGQLTGG	2.81
LMLGEGVEFDVLPAFDALGQLTGG	3.19
LNLGEGVEFDVLPAFDALGQLTGG	2.41
LPLGEGVEFDVLPAFDALGQLTGG	3.18

Variant	protein stability index
LTLGEGVEFDVLPAFDALGQLTGG	1.61
LQAGEGVEFDVLPAFDALGQLTGG	3.65
LQCGEGVEFDVLPAFDALGQLTGG	2.57
LQDGEGVEFDVLPAFDALGQLTGG	2.98
LQEGEGVEFDVLPAFDALGQLTGG	4.56
LQFGEGVEFDVLPAFDALGQLTGG	2.08
LQGGEGVEFDVLPAFDALGQLTGG	2.93
LQHGEGVEFDVLPAFDALGQLTGG	4.17
LQIGEGVEFDVLPAFDALGQLTGG	2.26
LQKGEGVEFDVLPAFDALGQLTGG	3.97
LQMGEGVEFDVLPAFDALGQLTGG	2.34
LQNGEGVEFDVLPAFDALGQLTGG	1.72
LQPGEGVEFDVLPAFDALGQLTGG	4.01
LQQGEGVEFDVLPAFDALGQLTGG	3.6
LQRGEGVEFDVLPAFDALGQLTGG	3.24
LQSGEGVEFDVLPAFDALGQLTGG	3.02
LQTGEGVEFDVLPAFDALGQLTGG	3.61
LQVGEGVEFDVLPAFDALGQLTGG	2.34
LQWGEGVEFDVLPAFDALGQLTGG	2.49
LQYGEGVEFDVLPAFDALGQLTGG	3.37
LQLCEGVEFDVLPAFDALGQLTGG	1.38
LQLEEGVEFDVLPAFDALGQLTGG	3.05
LQLFEGVEFDVLPAFDALGQLTGG	1.17
LQLHEGVEFDVLPAFDALGQLTGG	2.25
LQLIEGVEFDVLPAFDALGQLTGG	1.88

Variant	protein stability index
LQLKEGVEFDVLPAFDALGQLTGG	2.8
LQLMEGVEFDVLPAFDALGQLTGG	2.36
LQLNEGVEFDVLPAFDALGQLTGG	2.16
LQLPEGVEFDVLPAFDALGQLTGG	2.36
LQLQEGVEFDVLPAFDALGQLTGG	2.75
LQLREGVEFDVLPAFDALGQLTGG	1.78
LQLSEGVEFDVLPAFDALGQLTGG	1.4
LQLTEGVEFDVLPAFDALGQLTGG	2.28
LQLVEGVEFDVLPAFDALGQLTGG	1.7
LQLWEGVEFDVLPAFDALGQLTGG	1.65
LQLYEGVEFDVLPAFDALGQLTGG	1.08
LQLGAGVEFDVLPAFDALGQLTGG	1.99
LQLGCGVEFDVLPAFDALGQLTGG	1.25
LQLGDGVEFDVLPAFDALGQLTGG	2.24
LQLGGGVEFDVLPAFDALGQLTGG	2.63
LQLGHGVEFDVLPAFDALGQLTGG	1.68
LQLGKGVEFDVLPAFDALGQLTGG	2.09
LQLGLGVEFDVLPAFDALGQLTGG	1.02
LQLGMGVEFDVLPAFDALGQLTGG	1.15
LQLGNGVEFDVLPAFDALGQLTGG	2.09
LQLGPGVEFDVLPAFDALGQLTGG	1.93
LQLGQGVEFDVLPAFDALGQLTGG	1.64
LQLGTGVEFDVLPAFDALGQLTGG	2.05
LQLGVGVEFDVLPAFDALGQLTGG	2.24
LQLGWGVEFDVLPAFDALGQLTGG	2.32

Variant	protein stability index
LQLGYGVEFDVLPAFDALGQLTGG	1.14
LQLGEAVEFDVLPAFDALGQLTGG	1.53
LQLGECVEFDVLPAFDALGQLTGG	1.83
LQLGEDVEFDVLPAFDALGQLTGG	1.88
LQLGEEVEFDVLPAFDALGQLTGG	2.38
LQLGEFVEFDVLPAFDALGQLTGG	1.63
LQLGEHVEFDVLPAFDALGQLTGG	2.8
LQLGEIVEFDVLPAFDALGQLTGG	1.28
LQLGEKVEFDVLPAFDALGQLTGG	3
LQLGEMVEFDVLPAFDALGQLTGG	2.01
LQLGENVEFDVLPAFDALGQLTGG	2.25
LQLGEPVEFDVLPAFDALGQLTGG	2.94
LQLGEQVEFDVLPAFDALGQLTGG	2.51
LQLGERVEFDVLPAFDALGQLTGG	2.33
LQLGESVEFDVLPAFDALGQLTGG	2.39
LQLGETVEFDVLPAFDALGQLTGG	1.55
LQLGEWVEFDVLPAFDALGQLTGG	1.74
LQLGEYVEFDVLPAFDALGQLTGG	1.3
LQLGEGAEFDVLPAFDALGQLTGG	2.33
LQLGEGCEFDVLPAFDALGQLTGG	1.34
LQLGEGDEFDVLPAFDALGQLTGG	2.04
LQLGEGEEFDVLPAFDALGQLTGG	2.5
LQLGEGFEFDVLPAFDALGQLTGG	1.8
LQLGEGHEFDVLPAFDALGQLTGG	2.9
LQLGEGIEFDVLPAFDALGQLTGG	2.84

Variant	protein stability index
LQLGEGKEFDVLPAFDALGQLTGG	2.27
LQLGEGLEFDVLPAFDALGQLTGG	3.26
LQLGEGMEFDVLPAFDALGQLTGG	1.52
LQLGEGNEFDVLPAFDALGQLTGG	2.46
LQLGEGPEFDVLPAFDALGQLTGG	1.67
LQLGEGQEFDVLPAFDALGQLTGG	2.86
LQLGEGREFDVLPAFDALGQLTGG	2.27
LQLGEGSEFDVLPAFDALGQLTGG	2.11
LQLGEGTEFDVLPAFDALGQLTGG	2.41
LQLGEGWEFDVLPAFDALGQLTGG	2.81
LQLGEGYEFDVLPAFDALGQLTGG	1.55
LQLGEGVDFDVLPAFDALGQLTGG	2.54
LQLGEGVHFDVLPAFDALGQLTGG	2.07
LQLGEGVIFDVLPAFDALGQLTGG	2.37
LQLGEGVKFDVLPAFDALGQLTGG	1.83
LQLGEGVLFDVLPAFDALGQLTGG	1.5
LQLGEGVNFDVLPAFDALGQLTGG	2.4
LQLGEGVPFDVLPAFDALGQLTGG	2.09
LQLGEGVQFDVLPAFDALGQLTGG	1.67
LQLGEGVSFDVLPAFDALGQLTGG	1.99
LQLGEGVTFDVLPAFDALGQLTGG	1.42
LQLGEGVWFDVLPAFDALGQLTGG	1.98
LQLGEGVYFDVLPAFDALGQLTGG	2.67
LQLGEGVECDVLPAFDALGQLTGG	2.37
LQLGEGVEDDVLPAFDALGQLTGG	3.88

Variant	protein stability index
LQLGEGVEEDVLPAFDALGQLTGG	4.37
LQLGEGVEHDVLPAFDALGQLTGG	4.18
LQLGEGVEIDVLPAFDALGQLTGG	1.65
LQLGEGVEKDVLPAFDALGQLTGG	3.69
LQLGEGVEMDVLPAFDALGQLTGG	2.88
LQLGEGVENDVLPAFDALGQLTGG	4.57
LQLGEGVEPDVLPAFDALGQLTGG	3.64
LQLGEGVEQDVLPAFDALGQLTGG	3.84
LQLGEGVERDVLPAFDALGQLTGG	3.67
LQLGEGVESDVLPAFDALGQLTGG	4.03
LQLGEGVEFCVLPAFDALGQLTGG	2.3
LQLGEGVEFFVLPAFDALGQLTGG	1.64
LQLGEGVEFGVLPAFDALGQLTGG	2.03
LQLGEGVEFHVLPAFDALGQLTGG	1.5
LQLGEGVEFKVLPAFDALGQLTGG	1.99
LQLGEGVEFNVLPAFDALGQLTGG	3
LQLGEGVEFPVLPAFDALGQLTGG	2.53
LQLGEGVEFQVLPAFDALGQLTGG	1.8
LQLGEGVEFSVLPAFDALGQLTGG	2
LQLGEGVEFTVLPAFDALGQLTGG	1.36
LQLGEGVEFVVLPAFDALGQLTGG	2.77
LQLGEGVEFDALPAFDALGQLTGG	1.91
LQLGEGVEFDCLPAFDALGQLTGG	2
LQLGEGVEFDELPAFDALGQLTGG	2.95
LQLGEGVEFDFLPAFDALGQLTGG	1.59

Variant	protein stability index
LQLGEGVEFDHLPAFDALGQLTGG	2.83
LQLGEGVEFDILPAFDALGQLTGG	1.49
LQLGEGVEFDKLPAFDALGQLTGG	2.72
LQLGEGVEFDLLPAFDALGQLTGG	1.96
LQLGEGVEFDMLPAFDALGQLTGG	2.33
LQLGEGVEFDNLPAFDALGQLTGG	3.33
LQLGEGVEFDPLPAFDALGQLTGG	2.3
LQLGEGVEFDQLPAFDALGQLTGG	3.62
LQLGEGVEFDRLPAFDALGQLTGG	2.54
LQLGEGVEFDSLPAFDALGQLTGG	2.59
LQLGEGVEFDTLPAFDALGQLTGG	2.21
LQLGEGVEFDWLPAFDALGQLTGG	1.16
LQLGEGVEFDVDPAFDALGQLTGG	4.05
LQLGEGVEFDVEPAFDALGQLTGG	3.98
LQLGEGVEFDVFPAFDALGQLTGG	1.54
LQLGEGVEFDVGPAFDALGQLTGG	2.69
LQLGEGVEFDVHPAFDALGQLTGG	3.08
LQLGEGVEFDVIPAFDALGQLTGG	1.64
LQLGEGVEFDVKPAFDALGQLTGG	2.94
LQLGEGVEFDVMPAFDALGQLTGG	3.1
LQLGEGVEFDVNPAFDALGQLTGG	2.99
LQLGEGVEFDVPPAFDALGQLTGG	2.48
LQLGEGVEFDVQPAFDALGQLTGG	2.59
LQLGEGVEFDVRPAFDALGQLTGG	2.69
